These are literature values, as cited in PMC11195831.

One may read the Kd as a measure of binding affinity in units of concentration.

The data set addresses PD-1 (Homo sapiens) (UniProt Q15116). Nature of the data set: SPR. Background: In SPR one partner is held on a chip, and binding of the other changes the refractive index at the surface.

Chain of PD-1 (Homo sapiens) (Q15116 25-170): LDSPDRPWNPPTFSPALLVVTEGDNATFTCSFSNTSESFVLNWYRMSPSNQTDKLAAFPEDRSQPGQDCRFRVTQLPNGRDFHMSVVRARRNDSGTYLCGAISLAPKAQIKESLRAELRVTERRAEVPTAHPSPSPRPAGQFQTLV

As to Dostarlimab, the Kd is 0.3 nM. As for Retifanlimab, the Kd was 0.6 nM.
